The values that follow come from patent US20220409694A1, “POLYPEPTIDE, AND PREPARATION METHOD THEREFOR AND USE THEREOF” (SHANXI JINBO BIO-PHARMACEUTICAL CO., LTD., priority 2020, published 2022).

Common to all, as to test: cell-based or functional assay
Assay [1] deals with Rs3367-CoV S protein (pcDNA3.1-Rs3367-CoV-S, on pseudovirus) (Rs3367-CoV (SARS-like virus from bats)).
Assay [2] concerns the target SARS-CoV S protein (pcDNA3.1-SARS-CoV-S, on pseudovirus) (SARS-CoV), P59594.
In assay [3] the target is WIV1-CoV S protein (pcDNA3.1-WIV1-CoV-S, on pseudovirus) (WIV1-CoV (SARS-like virus from bats)).

As for SLDQINVTFLDLEYEMKKLEEAIKKLEESYIDLKEL (modifications not checked) [EK1], the values for the Inhibitory Activity, IC50 (pseudovirus infection of HuH7, luciferase) in assay [1], in assay [2] and in assay [3] were 4000 nM, 1890 nM and 2940 nM, respectively.
